The record followed here is publication PMC9533685, “NICD3 regulates the expression of MUC5AC and MUC2 by recruiting SMARCA4 and is involved in the differentiation of mucinous colorectal adenocarcinoma” (Molecular Oncology, 2022).

This assay deals with T1, His-tagged human NOTCH3 intracellular domain (aa 1665-2321) (human, UniProt Q9UM47 1665-2321).
T1 construct: human NOTCH3 intracellular domain, aa 1665-2321; also called His-NICD3; source: E. coli, purified (GeneCreate Biological Engineering)
T1 sequence (looked up): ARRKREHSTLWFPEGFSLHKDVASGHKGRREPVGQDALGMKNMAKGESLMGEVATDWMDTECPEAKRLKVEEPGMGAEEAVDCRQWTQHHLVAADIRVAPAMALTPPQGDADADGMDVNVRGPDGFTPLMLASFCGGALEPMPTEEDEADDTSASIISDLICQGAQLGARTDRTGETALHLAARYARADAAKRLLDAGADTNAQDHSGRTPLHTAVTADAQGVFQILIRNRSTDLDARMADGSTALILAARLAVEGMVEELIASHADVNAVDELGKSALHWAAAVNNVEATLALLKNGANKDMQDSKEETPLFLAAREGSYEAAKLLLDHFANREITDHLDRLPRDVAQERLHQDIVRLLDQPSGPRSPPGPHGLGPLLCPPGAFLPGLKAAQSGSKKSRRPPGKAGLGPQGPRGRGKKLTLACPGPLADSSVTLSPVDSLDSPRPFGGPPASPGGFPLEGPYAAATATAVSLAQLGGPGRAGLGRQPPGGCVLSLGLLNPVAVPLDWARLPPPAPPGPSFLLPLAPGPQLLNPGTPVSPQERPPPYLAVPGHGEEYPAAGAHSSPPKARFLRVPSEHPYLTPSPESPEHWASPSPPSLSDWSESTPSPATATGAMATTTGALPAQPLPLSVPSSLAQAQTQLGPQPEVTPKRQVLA
Put plainly: pull-down; GST pull-down: purified GST-tagged SMARCA4 segments mixed with His-NICD3 on ice for 3 h, beads, five washes, elution with 15 mM reduced glutathione; blots with anti-GST and anti-His; GST as negative control. Particulars: both partners purified.

B1: GST-tagged SMARCA4 BRK domain (aa 612-656) (domain or fragment, human, UniProt P51532 612-656, looked up)
chain: MSDLPVKVIHVESGKILTGTDAPKAGQLEAWLEMNPGYEVAPRSD
notes: also called SMART BRK domain; source: E. coli, purified (GeneCreate Biological Engineering)
On to B1, for which the binding result was “binds”.

B2: GST-tagged SMARCA4 BROMO domain (aa 1455-1566) (domain or fragment, human, UniProt P51532 1455-1566, looked up)
chain: PPNLTKKMKKIVDAVIKYKDSSSGRQLSEVFIQLPSRKELPEYYELIRKPVDFKKIKERIRNHKYRSLNDLEKDVMLLCQNAQTFNLEGSLIYEDSIVLQSVFTSVRQKIEK
notes: also called SMART BROMO domain; source: E. coli, purified (GeneCreate Biological Engineering)
B2: the binding result was “binds”.
